According to patent publication US20220135680A1 (ABZYME THERAPEUTICS, published 2022):
Where a chain is given by its changes, count along the chain named.

B1: Abz497 ScFV (scFv)
scFv: QIQLVQSGAEVAKPGASVKVSCKASGYTFTRYTMHWVRQRPGQGLEWIGYINPSRGYTNYNQKFKDRATLTTDKSTSTAYMELSSLTSEDTAVYYCARYYDDHYCLDYWGQGTTVTVSSVEGGSGGSGGSGGSGGVDDIQLTQSPSSLSASVGDRVTITCRASSSVHYMNWYQQKSGTAPKRWIYDTSKVASGVPYRFSGSGSGTSYTLTISSLQPEDAATYYCQQWSSNPLTFGGGTKVEIKR
notes: also called pH-dependent ScFV antibody variant; not shown: FLAG tag at the C terminus
B2: Abz494 ScFV (scFv)
scFv: B1 scFv with S144P
notes: as for B1

Tests used:
[1] = target: T1, human CD3 receptor on human cells (human, UniProt P07766 23-207; P09693 23-182; P04234 22-171); experiment: flow cytometry on Jurkat cells (FIG. 5)
T1 construct: whole, on cells; also called human CD3 on cell surface; CD3 on Jurkat cells, clone E6-1
Description: FIG. 5 presents the cytoflow analysis of Jurkat cells stained with various anti-CD3 antibodies at various pHs.

[2] = target: T1, human CD3 receptor on human cells; experiment: flow cytometry on human cells (Example 5)

Binder | binding result [1] | binding result [2]
B1 | binds | 
B2 |  | binds
